Residue numbers refer to the chain shown, from its start. In names and notes the source's numbering stands.
B1: FIXa-K228N/K247N/N249S/R318Y/T343R/R403E/E410N (protein)
chain 1: YNSGKLEEFVQGNLERECMEEKCSFEEAREVFENTERTTEFWKQYVDGDQCESNPCLNGGSCKDDINSYECWCPFGFEGKNCELDVTCNIKNGRCEQFCKNSADNKVVCSCTEGYRLAENQKSCEPAVPFPCGRVSVSQTSKLTR
chain 2: VVGGEDAKPGQFPWQVVLNGKVDAFCGGSIVNEKWIVTAAHCVETGVNITVVAGEHNIEETEHTEQNRSVIRIIPHHNYNAAINKYNHDIALLELDEPLVLNSYVTPICIADKEYTNIFLKFGSGYVSGWGRVFHKGYSALVLQYLRVPLVDRATCLRSTKFRIYNNMFCAGFHEGGRDSCQGDSGGPHVTEVEGTSFLTGIISWGEECAMKGKYGIYTKVSEYVNWIKNKTKLT
B2: FIXa-D104N/K106S/R318Y/R338E/T343R/R403E/E410N (protein)
chain 1: B1 chain 1 with D104N, K106S
chain 2: B1 chain 2 with N48K, N67K, S69N, R158E
B3: FIXa-Y155F/R338E/T343R/R403E (protein)
chain 1: B1 chain 1
chain 2: B1 chain 2 with N48K, N67K, S69N, Y138R, R158E, N230E
B4: FIXa-Y155F/K247N/N249S/R318Y/R338E/T343R/R403E/E410N (protein)
chain 1: B1 chain 1
chain 2: B1 chain 2 with N48K, R158E
B5: FIXa-Y155F/K247N/N249S/R318Y/R338E (protein)
chain 1: B1 chain 1
chain 2: B1 chain 2 with N48K, R158E, R163T, E223R, N230E
B6: FIXa-K247N/N249S/R338E/T343R/R403E/E410N (protein)
chain 1: B1 chain 1
chain 2: B1 chain 2 with N48K, Y138R, R158E
B7: FIXa-Y155F/K247N/N249S/R318Y/R338E/T343R/R403E (protein)
chain 1: B1 chain 1
chain 2: B1 chain 2 with N48K, R158E, N230E
B8: FIXa-N260S/R318Y/R338E/T343R/R403E/E410N (protein)
chain 1: B1 chain 1
chain 2: B1 chain 2 with N48K, N67K, S69N, N80S, R158E
B9: FIXa-Y155F/R318Y/T343R/R403E/E410N (protein)
chain 1: B1 chain 1
chain 2: B1 chain 2 with N48K, N67K, S69N
B10: FIXa-Y155F/K247N/N249S/R318Y/R338E/T343R/E410N (protein)
chain 1: B1 chain 1
chain 2: B1 chain 2 with N48K, R158E, E223R
B11: FIXa-K247N/N249S/R318Y/T343R/R403E/E410N (protein)
chain 1: B1 chain 1
chain 2: B1 chain 2 with N48K
B12: FIXa-Y155F/K247N/N249S/R318Y/T343R (protein)
chain 1: B1 chain 1
chain 2: B1 chain 2 with N48K, E223R, N230E
B13: FIXa-Y155F/K247N/N249S/R318Y/T343R/R403E (protein)
chain 1: B1 chain 1
chain 2: B1 chain 2 with N48K, N230E
B14: FIXa-R338E/T343R/R403E/E410N (protein)
chain 1: B1 chain 1
chain 2: B1 chain 2 with N48K, N67K, S69N, Y138R, R158E
B15: FIXa-Y155F/R338E/T343R/R403E/E410N (protein)
chain 1: B1 chain 1
chain 2: B1 chain 2 with N48K, N67K, S69N, Y138R, R158E
B16: FIXa-R318Y/R338E/T343R/R403E/E410S (protein)
chain 1: B1 chain 1
chain 2: B1 chain 2 with N48K, N67K, S69N, R158E, N230S
B17: FIXa-Y155F/K247N/N249S/R318Y/E410N (protein)
chain 1: B1 chain 1
chain 2: B1 chain 2 with N48K, R163T, E223R
B18: FIXa-Y155F/R318Y/R338E/T343R/R403E (protein)
chain 1: B1 chain 1
chain 2: B1 chain 2 with N48K, N67K, S69N, R158E, N230E
B19: FIXa-Y155F/R318Y/R338E/T343R/E410N (protein)
chain 1: B1 chain 1
chain 2: B1 chain 2 with N48K, N67K, S69N, R158E, E223R
B20: FIXa-Y155F/K247N/N249S/R338E/T343R/R403E/E410N (protein)
chain 1: B1 chain 1
chain 2: B1 chain 2 with N48K, Y138R, R158E
B21: FIXa-Y155F/K247N/N249S/R318Y/R403E (protein)
chain 1: B1 chain 1
chain 2: B1 chain 2 with N48K, R163T, N230E
B22: FIXa-K247N/N249S/R338E/R403E/E410N (protein)
chain 1: B1 chain 1
chain 2: B1 chain 2 with N48K, Y138R, R158E, R163T
B23: FIXa-Y155F/K247N/N249S/R338E/R403E (protein)
chain 1: B1 chain 1
chain 2: B1 chain 2 with N48K, Y138R, R158E, R163T, N230E
B24: FIXa-Y155F/K247N/N249S/R338E/T343R (protein)
chain 1: B1 chain 1
chain 2: B1 chain 2 with N48K, Y138R, R158E, E223R, N230E
B25: FIXa-K247N/N249S/R318Y/R338E/T343R/R403E (protein)
chain 1: B1 chain 1
chain 2: B1 chain 2 with N48K, R158E, N230E
B26: FIXa-R338E/T343R/R403E (protein)
chain 1: B1 chain 1
chain 2: B1 chain 2 with N48K, N67K, S69N, Y138R, R158E, N230E
B27: FIXa-K228N/K247N/N249S/R318Y/R338E/T343R/R403E/E410N (protein)
chain 1: B1 chain 1
chain 2: B1 chain 2 with R158E
B28: FIXa-Y155F/I251S/R338E/T343R/R403E (protein)
chain 1: B1 chain 1
chain 2: B1 chain 2 with N48K, N67K, S69N, I71S, Y138R, R158E, N230E
B29: FIXa-R318Y/R338E/T343R/R403E (protein)
chain 1: B1 chain 1
chain 2: B1 chain 2 with N48K, N67K, S69N, R158E, N230E
B30: FIXa-Y155F/R318Y/R338E/T343R/R403E/E410N (protein)
chain 1: B1 chain 1
chain 2: B1 chain 2 with N48K, N67K, S69N, R158E
B31: FIXa-Y155F/K228N/I251S/R318Y/R338E/R403E/E410N (protein)
chain 1: B1 chain 1
chain 2: B1 chain 2 with N67K, S69N, I71S, R158E, R163T
B32: FIXa-K247N/N249S/R318Y/T343R/R403E (protein)
chain 1: B1 chain 1
chain 2: B1 chain 2 with N48K, N230E
B33: FIXa-Y155F/K247N/N249S/T343R/R403E (protein)
chain 1: B1 chain 1
chain 2: B1 chain 2 with N48K, Y138R, N230E
B34: FIXa-Y155F/K247N/N249S/R338E/E410N (protein)
chain 1: B1 chain 1
chain 2: B1 chain 2 with N48K, Y138R, R158E, R163T, E223R
B35: FIXa-K228N/I251S/R318Y/R338E/R403E/E410N (protein)
chain 1: B1 chain 1
chain 2: B1 chain 2 with N67K, S69N, I71S, R158E, R163T
B36: FIXa-Y155F/R338E/T343R/R403E/E410S (protein)
chain 1: B1 chain 1
chain 2: B1 chain 2 with N48K, N67K, S69N, Y138R, R158E, N230S
B37: FIXa-Y155F/N260S/R338E/T343R/R403E (protein)
chain 1: B1 chain 1
chain 2: B1 chain 2 with N48K, N67K, S69N, N80S, Y138R, R158E, N230E
B38: FIXa-Y155F/N260S/R318Y/R338E/T343R/R403E/E410N (protein)
chain 1: B1 chain 1
chain 2: B1 chain 2 with N48K, N67K, S69N, N80S, R158E
B39: FIXa-Y155F/K247N/N249S/R338E/R403E/E410N (protein)
chain 1: B1 chain 1
chain 2: B1 chain 2 with N48K, Y138R, R158E, R163T
B40: FIXa-K247N/N249S/R318Y/R338E/T343R/E410N (protein)
chain 1: B1 chain 1
chain 2: B1 chain 2 with N48K, R158E, E223R
B41: FIXa-Y155F/K247N/N249S/R318Y/T343R/R403E/E410N (protein)
chain 1: B1 chain 1
chain 2: B1 chain 2 with N48K
B42: FIXa-Y155F/K228N/K247N/N249S/R318Y/R338E/T343R/R403E/E410N (protein)
chain 1: B1 chain 1
chain 2: B1 chain 2 with R158E

Molecular target: Factor X (FX), P00742
Sequence (P00742 whole entry, looked up): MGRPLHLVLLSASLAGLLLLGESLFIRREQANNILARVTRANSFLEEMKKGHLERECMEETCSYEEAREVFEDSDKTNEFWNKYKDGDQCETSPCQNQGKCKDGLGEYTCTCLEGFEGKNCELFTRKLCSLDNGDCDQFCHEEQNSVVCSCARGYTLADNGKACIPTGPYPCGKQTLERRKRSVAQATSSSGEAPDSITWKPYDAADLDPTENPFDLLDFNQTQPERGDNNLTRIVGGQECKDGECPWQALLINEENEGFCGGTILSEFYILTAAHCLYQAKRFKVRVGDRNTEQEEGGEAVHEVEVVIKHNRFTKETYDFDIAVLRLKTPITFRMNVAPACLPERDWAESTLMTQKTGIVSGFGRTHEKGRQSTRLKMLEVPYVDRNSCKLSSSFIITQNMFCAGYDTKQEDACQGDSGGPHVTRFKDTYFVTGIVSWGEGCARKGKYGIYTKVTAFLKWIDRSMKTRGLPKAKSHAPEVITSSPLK

Protein | KM | kcat of FX activation by FIXa in the Xase complex (FVIIIa, PC/PS vesicles, Ca2+) | kcat | other results
B1 |  |  |  | kcat (s^-1) for activation of FX by FIXa in the Xase complex (FVIIIa, PC/PS vesicles, Ca2+), fluorogenic Spectrafluor FXa read-out: 8.1 s⁻¹; kcat/KM: 7.1e+07 M⁻¹ s⁻¹
B2 | 0.0266 µM | 5.7 s⁻¹ |  | 
B3 |  |  | 5.2 s⁻¹ | 
B4 | 0.0257 µM | 9.7 s⁻¹ |  | 
B5 |  |  | 7.5 s⁻¹ | 
B6 |  |  | 10.8 s⁻¹ | 
B7 |  |  | 10.6 s⁻¹ | 
B8 | 0.0321 µM | 8.9 s⁻¹ |  | 
B9 | 0.034 µM | 8.8 s⁻¹ |  | 
B10 |  |  | 7.7 s⁻¹ | kcat/KM: 5e+08 M⁻¹ s⁻¹
B11 |  |  | 9.5 s⁻¹ | kcat/KM: 1.3e+08 M⁻¹ s⁻¹
B12 |  |  | 10.3 s⁻¹ | 
B13 |  |  | 7.5 s⁻¹ | kcat/KM: 1.3e+08 M⁻¹ s⁻¹
B14 | 0.0347 µM | 9.8 s⁻¹ |  | 
B15 | 0.0259 µM | 5.7 s⁻¹ |  | 
B16 |  |  | 7.6 s⁻¹ | 
B17 |  |  | 3.4 s⁻¹ | 
B18 | 0.034 µM | 8.2 s⁻¹ |  | 
B19 | 0.0256 µM | 9.2 s⁻¹ |  | 
B20 |  |  | 9.8 s⁻¹ | 
B21 |  |  | 1.7 s⁻¹ | 

Protein | KM | kcat of FX activation by FIXa in the Xase complex (FVIIIa, PC/PS vesicles, Ca2+) | kcat | other results
B22 | 0.025 µM | 4.8 s⁻¹ |  | 
B23 |  |  | 5.3 s⁻¹ | kcat/KM: 1.4e+08 M⁻¹ s⁻¹
B24 |  |  | 10.6 s⁻¹ | kcat/KM: 7.3e+08 M⁻¹ s⁻¹
B25 |  |  | 9.2 s⁻¹ | 
B26 |  |  | 6.9 s⁻¹ | 
B27 |  |  | 9.9 s⁻¹ | 
B28 |  |  | 5.9 s⁻¹ | 
B29 | 0.0443 µM | 6.7 s⁻¹ |  | 
B30 | 0.0272 µM | 7.8 s⁻¹ |  | 
B31 | 0.0393 µM | 5.3 s⁻¹ |  | 
B32 |  |  | 3.7 s⁻¹ | kcat/KM: 3.9e+07 M⁻¹ s⁻¹
B33 |  |  | 4.7 s⁻¹ | 
B34 |  |  | 7.3 s⁻¹ | kcat/KM: 4.7e+08 M⁻¹ s⁻¹
B35 | 0.0364 µM | 7.5 s⁻¹ |  | 
B36 |  |  | 6.8 s⁻¹ | 
B37 |  |  | 6.4 s⁻¹ | 
B38 |  |  | 5.8 s⁻¹ | 
B39 | 0.0487 µM | 5 s⁻¹ |  | 
B40 |  |  | 8.8 s⁻¹ | kcat/KM: 3.2e+08 M⁻¹ s⁻¹
B41 |  |  | 9 s⁻¹ | kcat/KM: 1.6e+08 M⁻¹ s⁻¹
B42 |  |  | 9.4 s⁻¹ | 

From patent US20210230570
